Publication PMC10287707

T1: TIA1 RRM2_3 (human, UniProt P31483-2 93-274)
T1 sequence: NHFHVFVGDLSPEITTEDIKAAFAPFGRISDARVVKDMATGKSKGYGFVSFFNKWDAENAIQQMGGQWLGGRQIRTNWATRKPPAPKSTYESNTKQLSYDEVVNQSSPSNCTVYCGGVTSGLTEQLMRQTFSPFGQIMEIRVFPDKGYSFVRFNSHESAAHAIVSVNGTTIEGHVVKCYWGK

T2: TIA1 RRM2-3 (Homo sapiens, UniProt P31483-2 93-274)
T2 sequence: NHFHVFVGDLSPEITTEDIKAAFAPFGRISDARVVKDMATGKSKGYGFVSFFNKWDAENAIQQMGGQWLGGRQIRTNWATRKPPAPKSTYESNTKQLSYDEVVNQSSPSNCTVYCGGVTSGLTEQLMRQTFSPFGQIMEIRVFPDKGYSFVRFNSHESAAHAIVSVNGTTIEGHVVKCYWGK


Columns and labels:
TIA1 RRM2_3 [1] = target: T1, TIA1 RRM2_3; assay: EMSA; EMSA: 10 mM sodium phosphate pH 6.5, 50 mM NaCl, 1 mM DTT, 1 U/ul SUPERase-In, room temperature 20 min, native 1.2% agarose; RNA annealed in 10 mM Tris-HCl pH 7.5, 100 mM KCl; details: protein: recombinant, tags: His6-SUMO removed by SUMO protease, label: 5'-Cy3, hairpin
TIA1 RRM2-3 = target: T2, TIA1 RRM2-3; assay: EMSA; 10 mM sodium phosphate pH 6.5, 50 mM NaCl, 1 mM DTT; room temperature, 20 min; 1.2% agarose; protein 0.1-10 uM; RNA annealed in 10 mM Tris pH 7.5, 100 mM KCl; details: tags: His6-SUMO (cleaved; BamHI linker Ser or Gly-Ser may stay); label: 5' Cy3
TIA1 RRM2_3 [2] = target: T1, TIA1 RRM2_3; assay: EMSA; EMSA: 10 mM sodium phosphate pH 6.5, 50 mM NaCl, 1 mM DTT, 1 U/ul SUPERase-In, room temperature 20 min, native 1.2% agarose; RNA annealed in 10 mM Tris-HCl pH 7.5, 100 mM KCl; details: protein: recombinant; tags: His6-SUMO removed by SUMO protease; label: 5'-Cy3; hairpin

Row | Binder | Kd (TIA1 RRM2_3 [1]) [nM] | Kd (TIA1 RRM2-3) [nM] | binding signal (TIA1 RRM2_3 [2]) [kcal/mol ddG vs WT SL3] | also measured
1 | UGUUCUCUUAACGAACUUUAA (structured_RNA) [SL3 A68U] | 460 ± 50 |  |  | 
2 | UGUUCUCUACACGAACUUUAA (structured_RNA) [SL3 A69C] | 420 ± 40 |  |  | 
3 | UGUUCUCUAAACGAACUUCAA (structured_RNA) [SL3 U78C] | 1340 ± 190 | 1340 ± 190 |  | 
4 | UGUUCUCCAAACGAACUUUAA (structured_RNA) [SL3 U67C] |  | 3340 ± 1040 | 0.85 ± 0.21 | 
5 | UGUUCUCUCAACGAACUUUAA (structured_RNA) [SL3 A68C] |  | 730 ± 80 | -0.04 ± 0.1 | 
6 | UGUUCUCUGAACGAACUUUAA (structured_RNA) [SL3 A68G] |  | 900 ± 110 | 0.09 ± 0.1 | 
7 | UGUUCUCUAAACGAACAUUAA (structured_RNA) [SL3 U76A] |  | 6160 ± 1850 | 1.22 ± 0.2 | 
8 | UGUUCUCUAAACGAACGUUAA (structured_RNA) [SL3 U76G] |  | 3870 ± 1250 | 0.94 ± 0.21 | 
9 | UGUUCUCUAAACGAACUAUAA (structured_RNA) [SL3 U77A] |  | 4660 ± 1540 | 1.05 ± 0.2 | 
10 | UGUUCUCUAAACGAACUCUAA (structured_RNA) [SL3 U77C] |  | 1280 ± 180 | 0.29 ± 0.11 | 
11 | UGUUCUCUAAACGAACUGUAA (structured_RNA) [SL3 U77G] |  | 5770 ± 1460 | 1.18 ± 0.17 | 
12 | UGUUCUCUAAACGAACUUAAA (structured_RNA) [SL3 U78A] |  | 7540 ± 2120 | 1.34 ± 0.19 | 
13 | UGUUCUAAGAACUUUAA (structured_RNA) [SL3-HP3] |  |  |  | Kd (TIA1 RRM2_3 [1]; 3-nt loop): 3870 ± 1060 nM
14 | UGUUCCCCCCCCGAACUUUAA (structured_RNA) [SL3-HP-C7] | 1950 ± 440 |  |  | 
15 | UGUUCUUUUUUUGAACUUUAA (structured_RNA) [SL3-HP-U7] | 540 ± 30 |  |  | 
16 | UGUUCUCUAAACGAACU (structured_RNA) [SL3-TL1] |  |  |  | Kd (TIA1 RRM2_3 [1]; 1-nt 3' tail): 2860 ± 550 nM
17 | UGGGCUCUAAACGCCCUUUAA (structured_RNA) [SL3-GC] | 5650 ± 1700 |  |  | 
18 | UGUUCUCUAAACGAACCCCAA (structured_RNA) [SL3-TL-C3] |  | 2220 ± 360 |  | 
19 | UGUUCUCUAAACGAACGGGAA (structured_RNA) [SL3-TL-G3] |  | 2770 ± 630 |  | 
